From article PMC8274835

Tests used:
Assay in all cases: co-IP; mCherry-Rac1 transiently expressed in HEK293T for 16 h, precipitated with the RFP-TRAP kit (Chromotek); endogenous RhoGDI by Western blot, quantified (n = 3)
mCherry-Rac1 F28L = mCherry-Rac1 F28L (UniProt P63000)
mCherry-Rac1 G12V = mCherry-Rac1 G12V (UniProt P63000)
mCherry-Rac1 P29S = mCherry-Rac1 P29S (UniProt P63000)
mCherry-Rac1 Y64F = mCherry-Rac1 Y64F (UniProt P63000)

Measured: reduction of co-precipitated GDI against Rac1 WT

RhoGDI (endogenous, HEK293T) (from UniProt P52565 1-204) (natural protein)
50%: all assays above
